Results as given in PMC314469, “Protein Interaction Networks by Proteome Peptide Scanning” (PLoS Biology, 2004).

T1: amphyphisin SH3 (AMPH_HUMAN), P49418
T1 chain: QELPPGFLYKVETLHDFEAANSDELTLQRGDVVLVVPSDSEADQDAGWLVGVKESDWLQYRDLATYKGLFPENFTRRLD


What was measured:
[1] = target: T1, amphyphisin SH3 (AMPH_HUMAN), P49418; experiment: SPOT array
[2] = target: endophilin SH3 (SH3G2_HUMAN), Q99962; experiment: SPOT array

Row | Binder | normalised SPOT signal, Boehringer light units (BLU); mean over the file's lines of this peptide [1] | normalised SPOT signal, Boehringer light units (BLU); mean over the file's lines of this peptide [2]
1 | LGHPPAKPPLPPGP [Q96QH2 497-511] | 64.4 | 264
2 | LGDSLRRPQLRLWS [P41440 258-271] | 14.9 | 6
3 | LGKIPLKPPPLELL [O15504 407-421] | 72.5 | 61.2
4 | LFPPLFRPQRPHSA [Q9ULW2 164-177] | 5720 | 10200
5 | LETSLKRPKRPLFN [Q96RW7 67-80] | 1410 | 93.1
6 | LFNLIKRPDDEQRQ [Q9P260 301-314] | 16.2 | 34
7 | LERRLKRPRTQGVV [Q9H9E5 251-264] | 34.4 | 20
8 | LFFELRRPPQHGVL [Q9H6N9 50-63] | 12.7 | 168
9 | LGASPAKPPSPGAP [Q8WXD9 1320-1334] | 62 | 102
10 | LGEVPRRPASRGVP [Q969P6 16-29] | 22.2 | 1050

The next lines start with the values.

Row | normalised SPOT signal, Boehringer light units (BLU); mean over the file's lines of this peptide [1] | normalised SPOT signal, Boehringer light units (BLU); mean over the file's lines of this peptide [2] | Binder
11 | 451 | 54.6 | LEYVLFRPNRRYNQ [Q15018 147-160]
12 | 1500 | 1840 | LFQPPRRPGLGTVG [Q9HCK5 75-88]
13 | 35.1 | 1320 | APFLPPKPPPPIIV [Q9BYZ6 230-244]
14 | 459 | 538 | LFIIPPKPPGRPQG [P81489 12-26]
15 | 68.8 | 147 | LEQLLLRPERPGDT [O43157 127-140]
16 | 1400 | 4020 | APLLPPRPPPLPPV [Q9NR05 56-70]
17 | 34.3 | 122 | LGGSPRRPSGRKGS [Q92729 834-847]
